These are literature values, as cited in publication PMC8495968, “Towards optimizing peptide-based inhibitors of protein–protein interactions: predictive saturation variation scanning (PreSaVS)” (RSC Chemical Biology, 2021).

The term Kd denotes the constant that tells how readily two partners part at equilibrium.

In this data set the target is SIM (RanBP2) 2705-2717 (Homo sapiens) (UniProt P49792). Description: fluorescence anisotropy. On the technique in general: Polarisation of emitted light reports the rotation of a fluorescent probe.

Chain of SUMO-1 (P63165 2-97): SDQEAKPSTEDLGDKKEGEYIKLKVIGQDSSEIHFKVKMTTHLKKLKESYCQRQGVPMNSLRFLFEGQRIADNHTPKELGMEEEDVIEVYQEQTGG

With SUMO-1 (from UniProt P63165), the Kd is 1500 nM.
